Consider 21 sequences from the DeepSol protein solubility set.

The data set in a line: soluble on expression in E. coli; label from the status in PepcDB or PDB records.
With “GPGSMLRRTLYALTRPRDSAAASRDKAHFDVCVIGGGPAGIAAALRAADYNKRVCVVEKARLGGNDLWDGALQSKTMWECSAIMAKMRGDAAMRLYGESLDRYLEIDEVKMRQSMEQVSRIREEQIQAALKASPNVELVLGRATFSSNHEIQCHSKRTKEFRSITADYFIVATGSKPRKHPYVAADGRLVMTSDHIMRAPLPKSLVIVGAGVIGCEFASIIGRLGKTKVSIIDKAPHILPREDPDIVRMIESGMDRAGIVVHHNSDLYDMQPWEETVEEAKARHPADPAPQSGVQYTVMDRTTRKLTTFQVERALISIGRVPDYSRLGIENTTLKTRGSQLHVNEFGQCVGTPHIFAVGDAATHMQLVSMGEAQAKLAVDYIYGTEPKVVPNLTETMSSVAFLTRAVASVGYNESQCREKGIAYIAARYSYEVVSRAVAAANTKGFVKIICADDPERRILGVRALGMNASTLVDIGALAIQNGQGVFDLAGRLTAYPAVSQAFQECLRSILDLSAQLHADPARGVKLTKWTPPDMSRGVAYKGKATAPGESSPRQSGWVIH”, the “soluble on expression in E. coli” value is given as “not soluble”.
To “MAHHHHHHMLPRGEQHVSVAGSDDYMDDAASALLSELQQVVVRVSHQMVEERRRAAQQRKQIRALEAIVAEQDAMLDALRTQCDAAQCEKSRLLKSYQQELRWRGADPVQAARRSRDICGTSGTHVSAAQVDNVVQAEFRRLSTIYESCPFSGFDDVSPVVAAVLRSLATQVLQLRGAARNDEAEASDISKDAQPAPVQPHATSSSLRASARGTSTSSLMPAFNRSAPTDGHGKAGVVDRVTPLAALEKRKKASMFAAATAGPNHSPSETAGRTNGEEAELHRVDLDAGRNGDADAAACMASEASASVASSVCEDAASILSDIRARYGL” belongs “not soluble”.
To “MSRLEAWAYLSRVFEGPSRSLQKLLETESDVEKIAWGIKKREAWLGPILFETASRYSVSLEQEDLTTIKNLGGRLVTPDDDEWPREKFETAFGFAASGTSSLVRSYQSDAVAPHALWVRGAPLSTTVDRSVAIVGTRAMSHYGKSATSMLAAGIADHHWTIVSGGALGVDTVAHTEALQRQKPTVAVCARGLDAPYPRKNAELLRSIVETGCLVSEYAPGLTPHRHRFLTRNRLVAALSQGTVVVEAAWRSGALNTLSWASALGRVAMAVPGPVTNTGSLGCHERIRNKEAELVCSAEEILALVGTLGEFDPNGQYELQFAADPIQSLSRNEMRVFDSLDANPHTTDTVAAAAGIPIGLCVHILRDLEKKQLVMREGAHWHRC” belongs “not soluble”; to “MRSKRFEALAKRPVNQDGFVKEWIEEGFIAMESPNDPKPSIKIVNGAVTELDGKPVSDFDLIDHFIARYGINLNRAEEVMAMDSVKLANMLCDPNVKRSEIVPLTTAMTPAKIVEVVSHMNVVEMMMAMQKMRARRTPSQQAHVTNVKDNPVQIAADAAEGAWRGFDEQETTVAVARYAPFNAIALLVGSQVGRPGVLTQCSLEEATELKLGMLGHTCYAETISVYGTEPVFTDGDDTPWSKGFLASSYASRGLKMRFTSGSGSEVQMGYAEGKSMLYLEARCIYITKAAGVQGLQNGSVSCIGVPSAVPSGIRAVLAENLICSSLDLECASSNDQTFTHSDMRRTARLLMQFLPGTDFISSGYSAVPNYDNMFAGSNEDAEDFDDYNVIQRDLKVDGGLRPVREEDVIAIRNKAARALQAVFAGMGLPPITDEEVEAATYAHGSKDMPERNIVEDIKFAQEIINKNRNGLEVVKALAQGGFTDVAQDMLNIQKAKLTGDYLHTSAIIVGDGQVLSAVNDVNDYAGPATGYRLQGERWEEIKNIPGALDPNEID”, “soluble”.
As to “MTPLPVTVIGGYLGAGKTTLVNHLLRHAAGRRLAVLVNEFGDLPIDADLIEAEEDGMISIAGGCICCSFGSDLIGALNDLAAMEPRPDHILVESSGVAIPGAIVSTMLLADGIRSDGIVVVVDGETVRQRAQDDYVGDTITRQLSDAEIVVVNKTDLLAHAVQTELMEWLAEAAPGAIAIPAERGRVAPGALLGVLPAPGTGQPAHHSDRLFDSLVLAPEGGQPIERLARDLATGPHGVIRAKGYLRDIEGALWLIQTVGRRWEVTPAQGPHQTGLVCIGFRDRLDRSGLAALAGATV”, the “soluble on expression in E. coli” value was “not soluble”.
Regarding “MGSDKIHHHHHHMGSTFMGIETGRRALTTNQWALQSTGNNIANAGTAGFSRQRLVMATTEQLSMAIGTGKMGQIGTGVRGEILERVRDVMLDKQYRDEATKTAYYGTKEAAFGRMEDIINEPSDTGLAKAFDGFWESLQTLSTNPQDSGARSVVRQKAETLTQTFNYMSKSLSQVKEDLKSEIDVSTKKVNDLFKKIHNINAEIHTVEPLGVLPNALYDERDRYMDELAQYVDFEKVSVDAEAITQGKLGNATKTAEGRIDILVKLPNGNKLRAVDSDVAQAGILSFTTNDKGLYTGFETNSQTISFDAAGGGFANGRIAGLLEMYGQIKNGQPTGEFVKMQSNLDEMATTFATAFNAAHAANFKKDKTNGTDQFFVATSGSISAATIAVGQDIKGSLDNIATSTDGNIGDSAGALKLAQMKTTSLLFATSVTTTTIGSFYQNVIGDMGVATDQVGRLGQSSAVLMDSAEQRRMSVSAVSIDEEMTMMIQYQHAYNAAARNITTVDEMLDKIINGMGIVGR”, the “soluble on expression in E. coli” value is recorded as “not soluble”.
Regarding “MGHHHHHHSHMRIVFDIGGSVLVPEKPDVDFITKLGYELTKISEDHEIAIVVGGGKVAREYIEVASKFNTNETFKDYLGIQITRANAMLLIAALKERAYPQVVSDFWEAWKAIQLKKIPVMGGTHPGHTTDAVSALLAEFLSADLLVVITNVDGVYTEDPKKNPNAKKIPKMKAKDLVDIVSREAGKAGVSTVIDPLAAKIIMRSGIKTYVIG”, the “soluble on expression in E. coli” value is on record as “not soluble”.
To “MSNAFEYLRTYVESTTETDAAVARAREDAAEFGLPAPDEMTGQLLTTLAATTNGNGSTGAIAITPAAGLVGLYILNGLADNTTLTCIDPESEHQRQAKALFREAGYSPSRVRFLLSRPLDVMSRLANDSYQLVFGQVSPMDLKALVDAAWPLLRRGGALVLADALLDGTIADQTRKDRDTQAARDADEYIRSIEGAHVARLPLGAGLTVVTKALEHHHHHH” belongs “soluble”.
For “MTKFNWHESAEKKWDSSAEFWNQNSQEMWDSGSRSTIIPFFEQYVKKEAQVLDVGCGDGYGTYKLSSAGYKAVGVDLSEVMIQKGKERGEGPNLSFIKGDLSALPFENEQFESIMAINSLEWTEEPLRALNEIKRVLKKDGYACIAILGPTAKPRENSYLRLYGKDVVCNTMMPWEFEQLAKEQGFKVIDGIGVYKRGVNEKMLGQLPTELQQSLTFLWVFMLKNV”, the “soluble on expression in E. coli” value is given as “not soluble”.
Consider “MEDFKSGDLILGYYKVLEKLGEGNFGKVYKVEALKGRYKGKVFALKVASNPYSVHYLWKEAQTLILFHHQNIVSLQSYLYKKDKKELYLIYEYMDFGTLKDYVEKKGKLSPEEALKVLRHVVNALEYLHSRGYIHSDLKPENVFGKRVLGGVLWKLGDFSLVRIRGDVSIIDVKGTIGFIAPEIFRGEIHRSSDIYSLGCLTLYMLTGKVPFEGKDFKERKEKNKRGEVEIPEEIPGKLKDLLERMLEVDYKRRFRTARELKEYMVKEGLI”, for which the “soluble on expression in E. coli” value is recorded as “soluble”.
For “MDFPCLWLGLLLPLVAALDFNYHRQEGMEAFLKTVAQNYSSVTHLHSIGKSVKGRNLWVLVVGRFPKEHRIGIPEFKYVANMHGDETVGRELLLHLIDYLVTSDGKDPEITNLINSTRIHIMPSMNPDGFEAVKKPDCYYSIGRENYNQYDLNRNFPDAFEYNNVSRQPETVAVMKWLKTETFVLSANLHGGALVASYPFDNGVQATGALYSRSLTPDDDVFQYLAHTYASRNPNMKKGDECKNKMNFPNGVTNGYSWYPLQGGMQDYNYIWAQCFEITLELSCCKYPREEKLPSFWNNNKASLIEYIKQVHLGVKGQVFDQNGNPLPNVIVEVQDRKHICPYRTNKYGEYYLLLLPGSYIINVTVPGHDPHITKVIIPEKSQNFSALKKDILLPFQGQLDSIPVSNPSCPMIPLYRNLPDHSAATKPSLFLFLVSLLHIFFK” the value was “soluble”.
In the case of “HGDGPGNAVQEIMIPASKAGLVIGKGGETIKQLQERAGVKMVMIQDGPQNTGADKPLRITGDPYKVQQAKEMVLELIRDQG”, the “soluble on expression in E. coli” value is “soluble”.
To “NNNRAPKEPTDPVTLIFTDIESSTALWAAHPDLMPDAVAAHHRMVRSLIGRYKCYEVKTVGDSFMIASKSPFAAVQLAQELQLCFLHHDWGTNALDDSYREFEEQRAEGECEYTPPTAHMDPEVYSRLWNGLRVRVGIHTGLCDIRHDEVTKGYDYYGRTPNMAARTESVANGGQVLMTHAAYMSLSAEDRKQIDVTALGDVALRGVSDPVKMYQLNTVPSRNFAALRLDREYFD” belongs “soluble”.
For “MAIPKLQSYALPTALDIPTNKVNWAFEPERAALLIHDMQDYFVSFWGRNCPMMDQVIANIAALRQYCKEHHIPVYYTAQPKEQSDEDRALLNDMWGPGLTRSPEQQKVVEALTPDEADTVLVKWRYSAFHRSPLEQMLKDTGRNQLIITGVYAHIGCMTTATDAFMRDIKPFMVADALADFSREEHLMALNYVAGRSGRVVMTESLLPTPVPASKAALRALILPLLDETDEPLDDENLIDYGLDSVRMMGLAARWRKVHGDIDFVMLAKNPTIDAWWALLSRGVE” the value was “not soluble”; for “MAGDPMRMVAHRFLRPQEAHMQVLVRDNNVDQALRILKKKLQREGVFREMRLREAFEKPSIKKAREKAEAIGRQRKLARKQMQREGLLPTKPRKDKLEHHHHHH”, “not soluble”; for “MGSDKIHHHHHHMADQTESVSGVNVDQAELQKFAELAHKWWDKNSEFKPLHEINPLRLNYIDEHAGLAGKRVLDVGCGGGILSESMSERGAEVTGIDLGEKALKVAKLHQYESSAKVDYRLISVEELAQESPESFDIVTCMEMLEHVPDPAAIVRACARLTKPGGKVFFSTINRNPKAYLFAVLGAEYVLNLLPRGTHEYEKFIKPSELAGWARAAGLDVIASKGMGYNPLTKRYKLNNDVSVNYILQTVK”, “not soluble”.
For “MSIEVRDCNGALLADGDNVSLIKDLKLKGSSTVLKRGTMIRGIRLTDSEDEIEGRTDKIKGLVLRTEFLKKAGS” the value was “soluble”.
On to “MFGRLKQKVKEKTGRAKATTLPAEVDDAMGYFKNLTPRVKDLHKSMTNLEDISKWQKKASFSGTLENYSRLGDKINVKPFMDAVDARMGAEADAVKGVLAICEKYKSFYQNEGKLHADSIANLNRTRLDMDSAADKYANNETEVNKTRLDNSTTEFEVACERMRELANGIKTIESNHSSWQDGLMKEIKVALRK”, for which the “soluble on expression in E. coli” value is “not soluble”.
For “MRRVLFSCFCGLLWSSSGWAVDPLGTININLHGNVVDFSCTVNTADIDKTVDLGRWPTTQLLNAGDTTALVPFSLRLEGCPPGSVAILFTGTPASDTNLLALDDPAMAQTVAIELRNSDRSRLALGEASPTEEVDANGNVTLNFFANYRALASGVRPGVAKADAIFMINYN” the value was “not soluble”.
“MMRIGIIARFDVAEAVEIAERVASFLLNRGVEITVDLKLTEELPQLREYGEDIRNMDADMILTIGGDGTILRTRSLIEDKEIPILGINMGTVGFLTEVDPENVFSALEAVLRGEYAVEKRTLLSVYHNDELPSALNEVVLMTRRPAKMLHIEISVDDEVVEELRADGIIIATPSGSTAYSMSAGGPIVDPRVEAFLIVPICPFKLSARPLVVSNKSVIRVKLLRKGKKAIAVIDGQYEEEINHMDEVIFRKSERKAHFVRLSKDFYRKVREKLIEGGIDSIKG”: the “soluble on expression in E. coli” value is given as “soluble”.
Take “MSLNCTLDELRQRIEAHRPRQLDTDQRFPQAAVLVPITRSDDPELVLTLRAAGLSTHGGEVAFPGGRRDPEDADLVRTALREAEEEIALPPGLVEVVGPLSTLVSRHGIEVTPYVAFIPDFVEYQPNDGEIAAVFNVPLSFFRDDPREVTHRIDYFGRSWYVPSYRFGEFKIWGLTAIMVVELVNLLYDDPIDLHTPPASFIKLSEGGSHHHHHH”: the “soluble on expression in E. coli” value is “soluble”.
